pEC50, pKd: −log10 of the molar value.
How the values were obtained:
SHR-1210-IgG1 (human) = experiment: SPR
[1] = target: cyno PD1 expressed on CHO-K1 stable cell line (Macaca fascicularis) (UniProt B0LAJ3); experiment: flow cytometry on cells
[2] = target: human PD1 expressed on CHO-K1 stable cell line (Homo sapiens) (UniProt Q15116); experiment: flow cytometry on cells

Row | pKd (SHR-1210-IgG1 (human)) | pEC50 [1] | pEC50 [2] | Substance
1 | 7.49 | – | – | His-tagged monomeric cynomolgus monkey PD1 ectodomain (domain or fragment)
2 | 8.40 | – | – | His-tagged monomeric human PD1 ectodomain (from UniProt Q15116 25-170) (domain or fragment)
3 | – | 8.18 | 8.63 | SHR-1210-IgG1 (antibody)
